Like-named read-outs stand apart in the source and are kept apart here.
Experiments:
[1] = tested on: h-iPSCs
Experimental: S1-modETV2 protocol (4 days)—h-iPSCs were dissociated into single cells with TrypLE select and plated on Matrigel at a density of 60,000 cells/cm^2 in mTeSR1 medium with 10 μM Y27632. After 24 h, the medium was changed to S1 medium consisting of basal medium supplemented with 6 μM CHIR99021. Basal medium was prepared by adding 1× GlutaMax supplement and 60 μg/mL L-Ascorbic acid into Advanced DMEM/F12. After 48 h, h-MPCs were dissociated into single cells and then transfected with modRNA(ETV2) by either electroporation or lipofection. For electroporation, 2 million h-MPCs were resuspended in 100 μL buffer mixed with 1 μg modETV2. Electroporated cells were then seeded on a 60-mm Matrigel-coated dish in modETV2 medium consisting of basal medium supplemented with 50 ng/mL VEGF-A, 50 ng/mL FGF-2, 10 ng/mL EGF and 10 μM SB431542. For lipofection, 3 μL lipofectamine RNAiMax (ThermoFisher, Cat No. 13778030) were diluted in 50 μL Opti-MEM (ThermoFisher, Cat No. 31985062) and 0.6 μg modRNA(ETV2) diluted in another 50 μL Opti-MEM. Lipofectamine and modRNA(ETV2) were then mixed and incubated for 15 min at room temperature. The lipid/RNA complex was added to 0.5 million h-MPCs in modETV2 medium and transfected cells were then seeded on a 35-mm Matrigel-coated dish. Upon transfection (electroporation or lipofection), cells were cultured for another 48 h before purification. Medium was changed every day throughout this protocol (Table 2). modRNA encoding GFP (TriLink, Cat No. L-7601) at a concentration of 0.2 μg per million h-MPCs served as negative control.
S1-S2, method #1 (4 days)—h-iPSCs were dissociated into single cells with TrypLE select and plated on Matrigel at a density of 60,000 cells/cm^2 in mTeSR1 medium with 10 μM Y27632. […]
Cells were dissociated into single-cell suspensions using TrypLE and washed with PBS supplemented with 100BSA and 0.2 mM EDTA. In indicated experiments, cells were stained with flow cytometry antibodies and analyzed using a Guava easyCyte 6HT/2L flow cytometer (Millipore Corporation, Billerica, Mass.) and FlowJo software (Tree Star Inc., Ashland, Oreg.). […]

[2] = tested on: h-MPCs; assay: Conversion of h-MPCs into h-iECs after transfection with modRNA(ETV2), flow cytometry; assay type: cell-based, human; settings: for percentage of h-iECs at 96 h: above 0.5 μg of modRNA(ETV2) per 10^6 h-iPSCs
Text: Antibody information is detailed in Table 8.

[3] = tested on: h-MPCs; assay: Immunofluorescence staining for ETV2 after transfection with modRNA; assay type: cell-based, human; settings: 6 h after transfection of h-MPCs
Experimental: Cells were seeded in 8-well LAB-TEK chamber slides at a density of 60,000 cell s/cm^2. After confluency, cells were fixed in 4% paraformaldehyde (PFA), permeabilized with 0.1% Triton X-100 in PBS, and then blocked for 30 min in 5% horse serum (Vector, Cat No. 5-2000). Subsequently, cells were incubated with primary antibodies for 30 min at room temperature (RT). Cells were washed 3 times with PBS and then incubated with secondary antibodies for 30 min at RT. Cells were washed 3 times with PBS and stained with 0.5 μg/mL DAPI for 5 min. Slides were mounted with DAKO fluorescence mounting medium (Agilent, Cat No. 5302380-2). Antibody information is detailed in Table 8, above.

## VEGF
[1]; S1-S2 protocol, beyond 50 ng/mL
  proportion of ETV2+ cells and subsequent conversion to CD31+ h-iECs: failed to further increase

## Cc1cc(C)c(/C=C2\C(=O)Nc3ccccc32)[nH]1 [SU5416]
[1]; S1-S2 protocol
  h-iECs at 96 h: < 2%
[1]; S1-modETV2 protocol
  h-iECs at 96 h: 94%

B1: modRNA(ETV2): Chemically modified mRNA encoding ETV2, transcript variant 1 (NM_014209.3), SEQ ID NO: 1, generated by TriLink BioTechnologies (nucleic acid, listed as Homo sapiens)
chain: ATGGACCTGTGGAACTGGGATGAGGCATCCCCACAGGAAGTGCCTCCAGGGAACAAGCTGGCAGGGCTTGAAGGAGCCAAATTAGGCTTCTGTTTCCCTGATCTGGCACTCCAAGGGGACACGCCGACAGCGACAGCAGAGACATGCTGGAAAGGTACAAGCTCATCCCTGGCAAGCTTCCCACAGCTGGACTGGGGCTCCGCGTTACTGCACCCAGAAGTTCCATGGGGGGCGGAGCCCGACTCTCAGGCTCTTCCGTGGTCCGGGGACTGGACAGACATGGCGTGCACAGCCTGGGACTCTTGGAGCGGCGCCTCGCAGACCCTGGGCCCCGCCCCTCTCGGCCCGGGCCCCATCCCCGCCGCCGGCTCCGAAGGCGCCGCGGGCCAGAACTGCGTCCCCGTGGCGGGAGAGGCCACCTCGTGGTCGCGCGCCCAGGCCGCCGGGAGCAACACCAGCTGGGACTGTTCTGTGGGGCCCGACGGCGATACCTACTGGGGCAGTGGCCTGGGCGGGGAGCCGCGCACGGACTGTACCATTTCGTGGGGCGGGCCCGCGGGCCCGGACTGTACCACCTCCTGGAACCCGGGGCTGCATGCGGGTGGCACCACCTCTTTGAAGCGGTACCAGAGCTCAGCTCTCACCGTTTGCTCCGAACCGAGCCCGCAGTCGGACCGTGCCAGTTTGGCTCGATGCCCCAAAACTAACCACCGAGGTCCCATTCAGCTGTGGCAGTTCCTCCTGGAGCTGCTCCACGACGGGGCGCGTAGCAGCTGCATCCGTTGGACTGGCAACAGCCGCGAGTTCCAGCTGTGCGACCCCAAAGAGGTGGCTCGGCTGTGGGGCGAGCGCAAGAGAAAGCCGGGCATGAATTACGAGAAGCTGAGCCGGGGCCTTCGCTACTACTATCGCCGCGACATCGTGCGCAAGAGCGGGGGGCGAAAGTACACGTACCGCTTCGGGGGCCGCGTGCCCAGCCTAGCCTATCCGGACTGTGCGGGAGGCGGACGGGGAGCAGAGACACAATAA
modifications: chemically modified nucleosides
[2]; 48 h after transfection of h-MPCs
  cells that were endothelial (VE-Cadherin+/CD31+ cells): 95%
[2]; electroporation
  percentage of h-iECs at 96 h: 95%
[2]; lipofection
  percentage of h-iECs at 96 h: 75%
[3]
  cells expressing ETV2: > 85%

From patent US20200385685A1, “ROBUST DIFFERENTIATION OF HUMAN PLURIPOTENT STEM CELLS INTO ENDOTHELIAL CELLS USING TRANSCRIPTION FACTOR ETV2” (Children`s Medical Center Corporation, priority 2019, published 2020)
